Columns and labels:
[1] = target: T1, K28A_HO BMC-H 5815ggsSZ5-HA; experiment: fluorescence co-localization in E. coli, 100 µM or 500 µM IPTG (FIG. 2I)
T1 construct: Self-assembles into higher-order sheets in E. coli; also called K28A 5815-Synthetic Zipper5 construct; K28AHO BMC-H-SZ5
T1 chain: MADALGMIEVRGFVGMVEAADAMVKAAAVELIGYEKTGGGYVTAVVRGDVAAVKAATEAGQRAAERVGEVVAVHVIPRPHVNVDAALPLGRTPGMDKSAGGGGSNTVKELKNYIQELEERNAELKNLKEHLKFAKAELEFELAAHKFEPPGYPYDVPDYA

[2] = target: T1, K28A_HO BMC-H 5815ggsSZ5-HA; experiment: fluorescence microscopy of E. coli co-expressing both, 100 µM or 500 µM IPTG (FIG. 2I)
[3] = target: T1, K28A_HO BMC-H 5815ggsSZ5-HA; experiment: fluorescence co-localization in E. coli, deconvolved widefield (FIG. 2C)
[4] = target: T1, K28A_HO BMC-H 5815ggsSZ5-HA; experiment: live-cell fluorescence time course in E. coli
Description: E. coli BL21 ArcticExpress (DE3) competent cells (Agilent) were used for cellular expression studies. Competent cells were transformed with constructs containing the gene(s) of interest and plated on LB agar plates with the appropriate antibiotic(s) to provide selection. Individual colonies were picked into 5 mL LB cultures with the appropriate antibiotics(s) and incubated at 30° C., with a rotational stirring of 250 RPM. These overnight cultures were inoculated 1:100 into fresh liquid cultures with conditions dependent upon the experimental plan. For TEM analysis, cells were inoculated in 50 mL LB, grown until ˜OD₆₀₀ 0.8, induced with 100 μM IPTG, and incubated for an additional 6 hours, before 2 mL of the parent culture was fixed overnight at 4° C. Cells used to purify protein were cultured in a similar manner, the whole culture was pelleted, and cell pellets were stored at −20° C. for subsequent protein isolation. Cultures analyzed via light microscopy were inoculated into 1 mL LB or SOB media in culture tubes and incubated the indicated amount of time before imaging. Appropriate inducer(s) (IPTG or aTc) were added as indicated for each experimental design.
The dynamics of scaffold nucleation and maturation was then visualized over time in live cells. […]

B1: Synthetic Zipper6 LINKER mScarlet-I StrepII Tag construct (designed binder)
chain: MQKVAQLKNRVAYKLKENAKLENIVARLENDNANLEKDIANLEKDIANLERDVARGSGGGSGGGSMVSKGEAVIKEFMRFKVHMEGSMNGHEFEIEGEGEGRPYEGTQTAKLKVTKGGPLPFSWDILSPQFMYGSRAFIKHPADIPDYYKQSFPEGFKWERVMNFEDGGAVTVTQDTSLEDGTLIYKVKLRGTNFPPDGPVMQKKTMGWEASTERLYPEDGVLKGDIKMALRLKDGGRYLADFKTTYKAKKPVQMPGAYNVDRKLDITSHNEDYTVVEQYERSEGRHSTGGMDELYKSAWSHPQFEK
notes: also called SZ6-ggs-mScarlet-I; SZ6-mScarlet-I
Does B1 bind [1]?
Result: binds

B2: STREP-mScarlet-I (other)
chain: MVSKGEAVIKEFMRFKVHMEGSMNGHEFEIEGEGEGRPYEGTQTAKLKVTKGGPLPFSWDILSPQFMYGSRAFIKHPADIPDYYKQSFPEGFKWERVMNFEDGGAVTVTQDTSLEDGTLIYKVKLRGTNFPPDGPVMQKKTMGWEASTERLYPEDGVLKGDIKMALRLKDGGRYLADFKTTYKAKKPVQMPGAYNVDRKLDITSHNEDYTVVEQYERSEGRHSTGGMDELYK
notes: Fluorescent cargo without an SZ6 domain; also called untagged cargo
Does B2 bind [2]?
Result: no binding

B3: Synthetic Zipper6 LINKER mNeonGreen StrepII Tag construct (designed binder)
chain: MQKVAQLKNRVAYKLKENAKLENIVARLENDNANLEKDIANLEKDIANLERDVARGSGGGSGGGSMVSKGEEDNMASLPATHELHIFGSINGVDFDMVGQGTGNPNDGYEELNLKSTKGDLQFSPWILVPHIGYGFHQYLPYPDGMSPFQAAMVDGSGYQVHRTMQFEDGASLTVNYRYTYEGSHIKGEAQVKGTGFPADGPVMTNSLTAADWCRSKKTYPNDKTIISTFKWSYTTGNGKRYRSTARTTYTFAKPMAANYLKNQPMYVFRKTELKHSKTELNFKEWQKAFTDVMGMDELYKSAWSHPQFEK
notes: also called SZ6-ggs-mNeonGreen; SZ6-mNeonGreen
Does B3 bind [3]?
Result: binds

B4: STREP-mNeonGreen (other, not shown: small tags and cut ends)
chain: MVSKGEEDNMASLPATHELHIFGSINGVDFDMVGQGTGNPNDGYEELNLKSTKGDLQFSPWILVPHIGYGFHQYLPYPDGMSPFQAAMVDGSGYQVHRTMQFEDGASLTVNYRYTYEGSHIKGEAQVKGTGFPADGPVMTNSLTAADWCRSKKTYPNDKTIISTFKWSYTTGNGKRYRSTARTTYTFAKPMAANYLKNQPMYVFRKTELKHSKTELNFKEWQKAFTDVMGMDELYK
notes: Fluorescent cargo without an SZ6 domain; also called untagged cargo; untagged cargo construct PLacO::mNeonGreen
Does B4 bind [4]?
Result: no binding

From patent publication US20220162268A1 (BOARD OF TRUSTEES OF MICHIGAN STATE UNIVERSITY, published 2022)
